Here are results for five compounds from paper PMC3410980 (Bioconjugate chemistry, 2012).

Data set [1] is described as follows: hydrophobicity by reverse phase analytical HPLC. The settings on record: retention time in reverse phase HPLC column (C18, 55 °C). The data set is classed as physicochemical.
For data set [2] the following is noted: tail vein injection, 0.25-24 h.
A further data set can be described thus: in vivo. The settings on record: Balb/c, mouse, total radioactivity.

Non-standard residues stand in square brackets, D forms with d. Residues, ends and D or L forms follow the SMILES beside them. *: point of attachment. DOTA = O=C(O)CN1CCN(CC(=O)O)CCN(CC(=O)*)CCN(CC(=O)O)CC1; Nspe = C[C@H](NCC(=O)O)c1ccccc1; Nphe = O=C(O)CNCc1ccccc1; Nlys = NCCCCNCC(=O)O

Turning to `NCCCCN(CC(=O)N(CC(=O)N(CC(=O)N(CCCCN)CC(=O)N(CC(=O)N(CC(=O)N(CCCCN)CC(=O)N(CC(=O)N(CC(=O)N(CCCCN)CC(=O)N(CC(=O)N(CC(N)=O)Cc1ccccc1)Cc1ccccc1)Cc1ccccc1)Cc1ccccc1)Cc1ccccc1)Cc1ccccc1)Cc1ccccc1)Cc1ccccc1)C(=O)CN1CCN(CC(=O)O)CCN(CC(=O)O)CCN(CC(=O)O)CC1` [Compound 2] ({DOTA}-[Nlys][Nphe][Nphe][Nlys][Nphe][Nphe][Nlys][Nphe][Nphe][Nlys][Nphe][Nphe]-NH2), the “hydrophobicity (tR in minutes)” value in data set [1] amounted to 24.1 min.
`C[C@@H](c1ccccc1)N(CC(N)=O)C(=O)CN(CCCCN)C(=O)CN(C(=O)CN(C(=O)CN(CCCCN)C(=O)CN(C(=O)CN(C(=O)CN(CCCCN)C(=O)CN(C(=O)CN(C(=O)CN(CCCCN)C(=O)CN1CCN(CC(=O)O)CCN(CC(=O)O)CCN(CC(=O)O)CC1)[C@@H](C)c1ccccc1)[C@@H](C)c1ccccc1)[C@@H](C)c1ccccc1)[C@@H](C)c1ccccc1)[C@@H](C)c1ccccc1)[C@@H](C)c1ccccc1` [^64Cu-3, metal not drawn] ({DOTA}-[Nlys][Nspe][Nspe][Nlys][Nspe][Nspe][Nlys][Nspe][Nspe][Nlys][Nspe]-NH2): the “oral absorption / bioavailability” value (administered orally) is recorded as “poor bioavailability”. For the same compound, the “lower liver uptake relative to ^64Cu-1” value (intravenous) was “more than 50%”. Also, in data set [2], the “excretion route, kidney activity and clearance seen by PET” value (“excretion route” for short) is listed as “highest kidney activity of all three peptoids”. Also, in the data set “in vivo” (kidney, iv), the tissue uptake at 2 h is about 31.2 %ID/g and the tissue uptake at 24 h came out at 19.3 ± 2.6 %ID/g. In “in vivo” (liver, iv), the tissue uptake at 2 h turned out to be 56.7 ± 1.8 %ID/g and the tissue uptake at 24 h turned out to be 47.3 ± 4.4 %ID/g.
In the case of `C[C@@H](c1ccccc1)N(CC(N)=O)C(=O)CN(C(=O)CN(CCCCN)C(=O)CN(C(=O)CN(C(=O)CN(CCCCN)C(=O)CN(C(=O)CN(C(=O)CN(CCCCN)C(=O)CN(C(=O)CN(C(=O)CN(CCCCN)C(=O)CN1CCN(CC(=O)O)CCN(CC(=O)O)CCN(CC(=O)O)CC1)[C@@H](C)c1ccccc1)[C@@H](C)c1ccccc1)[C@@H](C)c1ccccc1)[C@@H](C)c1ccccc1)[C@@H](C)c1ccccc1)[C@@H](C)c1ccccc1)[C@@H](C)c1ccccc1` [^64Cu-1, metal not drawn] ({DOTA}-[Nlys][Nspe][Nspe][Nlys][Nspe][Nspe][Nlys][Nspe][Nspe][Nlys][Nspe][Nspe]-NH2), the “excretion route” value in data set [2] is “main excretion route is likely hepatic”. In addition, the tissue uptake at 2 h in the data set “in vivo” (kidney, iv) was 14.4 ± 0.9 %ID/g; in the data set “in vivo” (liver, iv), 138 ± 13.4 %ID/g; in the data set “in vivo” (stomach, po), 4.82 ± 1.44 %ID/g. In addition, the tissue uptake at 24 h worked out at 95.6 ± 10.5 %ID/g in “in vivo” (liver, iv) and 0.54 ± 0.22 %ID/g in “in vivo” (stomach, po).
Take `NCCCCN(CC(=O)N(CC(=O)N(CC(=O)N(CCCCN)CC(=O)N(CC(=O)N(CC(=O)N(CCCCN)CC(=O)N(CC(=O)N(CC(=O)N(CCCCN)CC(=O)N(CC(=O)N(CC(N)=O)Cc1ccccc1)Cc1ccccc1)Cc1ccccc1)Cc1ccccc1)Cc1ccccc1)Cc1ccccc1)Cc1ccccc1)Cc1ccccc1)C(=O)CN1CCN(CC(=O)O)CCN(CC(=O)O)CCN(CC(=O)O)CC1` [^64Cu-2, metal not drawn] ({DOTA}-[Nlys][Nphe][Nphe][Nlys][Nphe][Nphe][Nlys][Nphe][Nphe][Nlys][Nphe][Nphe]-NH2): in data set [2], the “excretion route” value is reported as “main excretion route is likely hepatic”. Further, the tissue uptake at 2 h in “in vivo” (kidney, iv) came out at 12.6 ± 2.3 %ID/g; in “in vivo” (liver, iv), 125 ± 16.8 %ID/g. The tissue uptake at 24 h in the data set “in vivo” (liver, iv) came to 72.2 ± 11.3 %ID/g.
For `C[C@@H](c1ccccc1)N(CC(N)=O)C(=O)CN(CCCCN)C(=O)CN(C(=O)CN(C(=O)CN(CCCCN)C(=O)CN(C(=O)CN(C(=O)CN(CCCCN)C(=O)CN(C(=O)CN(C(=O)CN(CCCCN)C(=O)CN1CCN(CC(=O)O)CCN(CC(=O)O)CCN(CC(=O)O)CC1)[C@@H](C)c1ccccc1)[C@@H](C)c1ccccc1)[C@@H](C)c1ccccc1)[C@@H](C)c1ccccc1)[C@@H](C)c1ccccc1)[C@@H](C)c1ccccc1` [Compound 3] ({DOTA}-[Nlys][Nspe][Nspe][Nlys][Nspe][Nspe][Nlys][Nspe][Nspe][Nlys][Nspe]-NH2), in data set [1], the “hydrophobicity (tR in minutes)” value was 23.9 min.

A word on the tissue uptake: it is the percentage of the injected dose found per gram of tissue.
